Patent US20200377551A1 (WAKE FOREST UNIVERSITY HEALTH SCIENCES, published 2020)

Molecular target: T1, Tom20 (UniProt Q15388 1-145)
T1 construct: Endogenous mitochondrial protein used as a specificity control in the MAVS co-IP
T1 sequence (looked up): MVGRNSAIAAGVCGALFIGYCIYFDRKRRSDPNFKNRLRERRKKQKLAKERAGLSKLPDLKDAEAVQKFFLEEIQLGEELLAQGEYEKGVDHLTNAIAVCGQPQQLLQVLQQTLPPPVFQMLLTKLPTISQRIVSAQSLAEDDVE
Assay: co-immunoprecipitation with MAVS antibody from HEK293 lysates, immunoblot (FIG. 2E)

B1: mitochondrial antiviral-signaling protein (MAVS) (other)
chain: MPFAEDKTYKYICRNFSNFCNVDVVEILPYLPCLTARDQDRLRATCTLSGNRDTLWHLFNTLQRRPGWVEYFIAALRGCELVDLADEVASVYESYQPRTSDRPPDPLEPPSLPAERPGPPTPAAAHSIPYNSCREKEPSYPMPVQETQAPESPGENSEQALQTLSPRAIPRNPDGGPLESSSDLAALSPLTSSGHQEKDTELGSTHTAGATSSLTPSRGPVSPSVSFQPLARSTPRASRLPGPTGSVVSTGTSFSSSSPGLASAGAAEGKQGAESDQAEPIICSSGAEAPANSLPSKVPTTLMPVNTVALKVPANPASVSTVPSKLPTSSKPPGAVPSNALTNPAPSKLPINSTRAGMVPSKVPTSMVLTKVSASTVPTDGSSRNEETPAAPTPAGATGGSSAWLDSSFENRGLGSELSKPGVLASQVDSPFSGCFEDLAISASTSLGMGPCHGPEENEYKSEGTFGIHVAENPSIQLLEGNPGPPADPDGGPRPQADRKFQEREVPCHRPSPGALWLQVAVTGVLVVTLLVVLYRRRLH
notes: Endogenous full-length MAVS in HEK293 lysates or on isolated mitochondria; also called MAVS protein
binding result: no binding
